In patent US20250313602A1 (published 2025):

Columns and labels:
[1] = target: T1, human IL-2Rα protein (10165-H08H, Sino Biological) (human, UniProt P01589 22-213); test: ELISA
T1 chain: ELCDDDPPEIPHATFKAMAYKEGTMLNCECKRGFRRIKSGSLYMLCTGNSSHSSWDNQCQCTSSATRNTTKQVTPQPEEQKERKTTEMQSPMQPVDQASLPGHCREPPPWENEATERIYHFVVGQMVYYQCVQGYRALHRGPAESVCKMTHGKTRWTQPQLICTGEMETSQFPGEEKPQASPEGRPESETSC

[2] = target: T2, human IL-2Rβ protein (10696-H05H, Sino Biological) (human, UniProt P14784 27-239); test: ELISA
T2 chain: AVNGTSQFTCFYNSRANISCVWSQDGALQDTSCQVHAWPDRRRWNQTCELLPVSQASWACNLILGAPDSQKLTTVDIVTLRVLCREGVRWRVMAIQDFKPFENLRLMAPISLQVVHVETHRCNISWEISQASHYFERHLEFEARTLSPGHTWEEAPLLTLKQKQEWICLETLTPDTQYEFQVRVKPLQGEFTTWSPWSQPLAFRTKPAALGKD

EC50 [1]: 3.06 nM | EC50 [2]: 94 nM
B1: IL-2-Fc fusion protein (Fc fusion)
chain: APTSSSTKKTQLQLEHLLLDLQMILNGINNYKNPKLTAMLTFKFYMPKKATELKHLQCLEEELKPLEEVLNLAQSKNFHFDPRDVVSNINVFVLELKGSETTFMCEYADETATIVEFLNRWITFCQSIISTLTGGGGSGGGGSGGGGSEPKSCDKTHTCPPCPAPEAAGGPSVFLFPPKPKDTLYITREPEVTCVVVDVSHEDPEVKFNWYVDGVEVHNAKTKPREEQYNSTYRVVSVLTVLHQDWLNGKEYKCKVSNKALPAPIEKTISKAKGQPREPQVYTLPPSREEMTKNQVSLTCLVKGFYPSDIAVEWESNGQPENNYKTTPPVLDSDGSFFLYSKLTVDKSRWQQGNVFSCSVMHEALHNHYTQKSLSLSPK
